One block for each molecule: values may come before it. Numbered stars: 1 amine (or outer) side, 2 acyl side, 3 side chain; on linkers, the order of the positions; unused ones are H or OH. Square brackets hold non-standard residues; d marks the D form. dSer(tBu) = CC(C)(C)OC[C@@H](N[*:1])C(=O)[*:2]; pGlu = O=C1CC[C@@H](C(=O)O)N1; azaGly = NNC(=O)O
How the values were obtained:
human GnRH receptor [1] = target: T1, human GnRH receptor (human, UniProt P30968 1-328); assay: cell-based or functional assay
T1 construct: whole, on cells; Endogenous receptor; also called LHRH receptor; human pituitary GnRH receptor
T1 sequence (looked up): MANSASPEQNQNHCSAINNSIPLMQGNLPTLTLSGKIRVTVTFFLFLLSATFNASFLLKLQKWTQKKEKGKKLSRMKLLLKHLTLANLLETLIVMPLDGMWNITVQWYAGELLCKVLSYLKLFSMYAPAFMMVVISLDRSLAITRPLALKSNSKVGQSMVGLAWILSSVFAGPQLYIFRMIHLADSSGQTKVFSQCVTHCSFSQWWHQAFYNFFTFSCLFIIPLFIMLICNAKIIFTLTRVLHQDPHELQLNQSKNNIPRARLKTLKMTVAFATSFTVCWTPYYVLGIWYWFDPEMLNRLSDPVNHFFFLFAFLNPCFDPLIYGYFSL

[2] = target: T2, rat GnRH receptor (rat pituitaries) (rat, UniProt P30969 1-327); assay: radioligand binding, displacement curves, rat pituitaries (control)
T2 construct: whole, on cells; Endogenous receptor of rat pituitary tissue, used as the control preparation
T2 sequence (looked up): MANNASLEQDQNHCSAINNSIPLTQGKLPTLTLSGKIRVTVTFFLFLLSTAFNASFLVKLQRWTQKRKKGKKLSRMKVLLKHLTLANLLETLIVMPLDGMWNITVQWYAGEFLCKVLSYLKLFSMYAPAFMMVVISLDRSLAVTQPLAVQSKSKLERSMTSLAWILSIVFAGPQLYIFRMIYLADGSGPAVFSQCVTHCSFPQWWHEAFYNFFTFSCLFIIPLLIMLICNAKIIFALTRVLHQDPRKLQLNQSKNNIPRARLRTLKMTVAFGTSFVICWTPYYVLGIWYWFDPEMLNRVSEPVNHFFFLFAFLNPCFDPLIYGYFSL

human GnRH receptor [3] = target: T1, human GnRH receptor; assay: radioligand binding, displacement curves, BLM human melanoma cell membranes
human GnRH receptor [4] = target: T1, human GnRH receptor; assay: radioligand binding, displacement curves, ME15392 human melanoma cell membranes

decrease of U-87MG cell proliferation at 10^-6 M (human GnRH receptor [1]): 28% | inhibition of U-87MG cell proliferation at 10^-5 M (human GnRH receptor [1]): 30%
Molecule: GnRH antagonist Cetrorelix (peptide)

inhibition of MV3 melanoma cell proliferation at 10^-4 M, 10^-5 M and 10^-6 M, from day 4 on (human GnRH receptor [1]): 15%
Molecule: Triptorelin, an LHRH agonist (Sigma Chemical Co., No. L9761) (peptide)

inhibition of MV3 melanoma cell proliferation at 10^-4 M (human GnRH receptor [1]): 15% | inhibition of MV3 melanoma cell proliferation at 10^-5 M (human GnRH receptor [1]): 35% | stimulation of MV3 melanoma cell growth at 10^-6 M (human GnRH receptor [1]): 40%
Molecule: Antide, a LHRH antagonist (Sigma Chemical Co., No. A8802) (peptide)

Kd [2]: 1.5 to 2 nM | Kd (human GnRH receptor [3]): 0.7 to 1.1 nM | Kd (human GnRH receptor [4]): 0.1 to 0.6 nM
B1: GnRH agonist LHRH-A, ZOLADEX [D-Ser(tBu)^6Aza-Gly-LHRH] (peptide)
peptide: [pGlu]HWSY[dSer(tBu)]LRP[azaGly]-NH2
modifications: also: 125I-labelled tracer form, position not given here
notes: the unlabelled form was used in the cell assays; also called Goserelin

From patent publication US20120238494A1 (published 2012)
